Assay results published in patent publication US6967029.

Assays:
[1] = molecular target: endogenous c-kit of COS-1 cells (cells transfected with V19.8 alone); experiment: 1.6 nM human 125I-SCF^1-164 on membrane fractions of COS-1 cells transfected with V19.8 alone
[2] = molecular target: human recombinant c-kit ligand binding plus transmembrane domains (hckit-LT1) expressed in COS-1 cells (human) (UniProt P10721); experiment: 1.6 nM human 125I-SCF^1-164 on membrane fractions of COS-1 cells transfected with V19.8:hckit-LT1
[3] = molecular target: endogenous c-kit of COS-1 cells (cells transfected with V19.8 alone); experiment: 1.6 nM human 125I-SCF^1-164 + 320 nM unlabelled human SCF^1-164, membranes of COS-1 cells transfected with V19.8 alone
[4] = molecular target: human recombinant c-kit ligand binding plus transmembrane domains (hckit-LT1) expressed in COS-1 cells (human) (UniProt P10721); experiment: 1.6 nM human 125I-SCF^1-164 + 320 nM unlabelled human SCF^1-164, membranes of COS-1 cells transfected with V19.8:hckit-LT1
[5] = molecular target: human recombinant c-kit ligand binding plus transmembrane domains (hckit-LT1) expressed in COS-1 cells (human) (UniProt P10721); experiment: 1.6 nM rat 125I-SCF^1-164 + 320 nM unlabelled rat SCF^1-164, membranes of COS-1 cells transfected with V19.8:hckit-LT1
[6] = molecular target: endogenous c-kit of COS-1 cells (cells transfected with V19.8 alone); experiment: 1.6 nM rat 125I-SCF^1-164 on membrane fractions of COS-1 cells transfected with V19.8 alone
[7] = molecular target: endogenous c-kit of COS-1 cells (cells transfected with V19.8 alone); experiment: 1.6 nM rat 125I-SCF^1-164 + 320 nM unlabelled rat SCF^1-164, membranes of COS-1 cells transfected with V19.8 alone
[8] = molecular target: human recombinant c-kit ligand binding plus transmembrane domains (hckit-LT1) expressed in COS-1 cells (human) (UniProt P10721); experiment: 1.6 nM rat 125I-SCF^1-164 on membrane fractions of COS-1 cells transfected with V19.8:hckit-LT1

human SCF^1-164 (radioiodinated; Examples 13 and 15) (from UniProt P21583 26-189) (ligand)
CPM Bound [1]: 2160 cpm
CPM Bound [2]: 59400 cpm
CPM Bound [3]: 2150 cpm
CPM Bound [4]: 2380 cpm

rat SCF^1-164 (radioiodinated; Example 15) (from UniProt P21581 26-189) (ligand)
CPM Bound [5]: 1100 cpm
CPM Bound [6]: 1100 cpm
CPM Bound [7]: 550 cpm
CPM Bound [8]: 70000 cpm
